Like-named read-outs stand apart in the source and are kept apart here. *1 amine or outer side, *2 acyl side, *3 side chain or, on linkers, in order; H or OH if unused. Bridges are numbered along the chain shown (N, C = ends). [ ]: non-standard residue; d: D form. The star is where a group is joined. C20 diacid = O=C(O)CCCCCCCCCCCCCCCCCCC(=O)*; γGlu = O=C(O)[C@H](CCC(=O)[*:2])N[*:1]; Hyp = O=C(O)[C@@H]1C[C@@H](O)CN1; NMeI = CC[C@H](C)[C@H](NC)C(=O)O; Aad = N[C@@H](CCCC(=O)O)C(=O)O; Sar = CNCC(=O)O

Experiment [1] has as its target T1, human amylin receptor 3 (hAMYR3), hCTR2 co-expressed with human receptor activity modifying protein 3 (hRAMP3) (human, UniProt P30988 25-474; O60896 24-148).
T1 sequence (looked up) 1: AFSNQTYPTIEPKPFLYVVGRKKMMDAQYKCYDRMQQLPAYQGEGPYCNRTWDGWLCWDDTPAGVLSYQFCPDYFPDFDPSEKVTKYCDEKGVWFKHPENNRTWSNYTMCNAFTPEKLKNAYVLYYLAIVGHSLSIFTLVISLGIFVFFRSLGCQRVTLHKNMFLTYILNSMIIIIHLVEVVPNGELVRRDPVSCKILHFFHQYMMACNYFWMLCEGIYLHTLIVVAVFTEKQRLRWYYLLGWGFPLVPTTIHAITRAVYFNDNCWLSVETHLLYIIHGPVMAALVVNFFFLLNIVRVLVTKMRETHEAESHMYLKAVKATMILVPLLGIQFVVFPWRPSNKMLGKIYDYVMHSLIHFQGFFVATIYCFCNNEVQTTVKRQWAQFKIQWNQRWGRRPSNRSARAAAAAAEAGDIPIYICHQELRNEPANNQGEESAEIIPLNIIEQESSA
T1 sequence (looked up) 2: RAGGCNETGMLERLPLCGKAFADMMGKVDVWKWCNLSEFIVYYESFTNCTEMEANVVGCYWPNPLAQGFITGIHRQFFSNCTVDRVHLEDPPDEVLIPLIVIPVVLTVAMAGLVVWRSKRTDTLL
Nature of the experiment: cell-based or functional assay.

The target in experiment [2] is T1, human amylin receptor 3 (hAMYR3), hCTR2 …. Nature of the experiment: cell-based or functional assay. The source holds these as a separate data set.

B1: [19CD]-isoGlu-R-C( )-QTAT-C( )-ATERLAHFLQRSSF-Gly(Me)-A-Ile(Me)-LSSTEVGSNT-Hyp-NH2 (Compd. 57) (peptide)
peptide: {C20 diacid-γGlu}-RCQTATCATERLAHFLQRSSF[Sar]A[NMeI]LSSTEVGSNT[Hyp]-NH2
modifications: disulfide 2-7
SMILES: CC[C@H](C)[C@@H](C(=O)N[C@@H](CC(C)C)C(=O)N[C@@H](CO)C(=O)N[C@@H](CO)C(=O)N[C@H](C(=O)N[C@@H](CCC(=O)O)C(=O)N[C@H](C(=O)NCC(=O)N[C@@H](CO)C(=O)N[C@@H](CC(N)=O)C(=O)N[C@H](C(=O)N1C[C@H](O)C[C@H]1C(N)=O)[C@@H](C)O)C(C)C)[C@@H](C)O)N(C)C(=O)[C@H](C)NC(=O)CN(C)C(=O)[C@H](Cc1ccccc1)NC(=O)[C@H](CO)NC(=O)[C@H](CO)NC(=O)[C@H](CCCNC(=N)N)NC(=O)[C@H](CCC(N)=O)NC(=O)[C@H](CC(C)C)NC(=O)[C@H](Cc1ccccc1)NC(=O)[C@H](Cc1c[nH]cn1)NC(=O)[C@H](C)NC(=O)[C@H](CC(C)C)NC(=O)[C@H](CCCNC(=N)N)NC(=O)[C@H](CCC(=O)O)NC(=O)[C@@H](NC(=O)[C@H](C)NC(=O)[C@@H]1CSSC[C@H](NC(=O)[C@H](CCCNC(=N)N)NC(=O)CC[C@H](NC(=O)CCCCCCCCCCCCCCCCCCC(=O)O)C(=O)O)C(=O)N[C@@H](CCC(N)=O)C(=O)N[C@@H]([C@@H](C)O)C(=O)N[C@@H](C)C(=O)N[C@@H]([C@@H](C)O)C(=O)N1)[C@@H](C)O
Turning to B1, the “hAMYR3 EC50 (nM); cAMP induction” value in experiment [1] and in experiment [2] was 0.11 nM throughout.

B2: NN96: N-alpha-[(S)-4-carboxy-4-(19-carboxynonadecanoylamino)butyryl]-[Arg1,Glu14,His17,Pro37]-pramlintide-NH2 (peptide)
peptide: {C20 diacid-γGlu}-RCNTATCATQRLAEFLHHSSNNFGPILPPTNVGSNTP-NH2
modifications: disulfide 2-7
SMILES: CC[C@H](C)[C@H](NC(=O)[C@@H]1CCCN1C(=O)CNC(=O)[C@H](Cc1ccccc1)NC(=O)[C@H](CC(N)=O)NC(=O)[C@H](CC(N)=O)NC(=O)[C@H](CO)NC(=O)[C@H](CO)NC(=O)[C@H](Cc1c[nH]cn1)NC(=O)[C@H](Cc1c[nH]cn1)NC(=O)[C@H](CC(C)C)NC(=O)[C@H](Cc1ccccc1)NC(=O)[C@H](CCC(=O)O)NC(=O)[C@H](C)NC(=O)[C@H](CC(C)C)NC(=O)[C@H](CCCNC(=N)N)NC(=O)[C@H](CCC(N)=O)NC(=O)[C@@H](NC(=O)[C@H](C)NC(=O)[C@@H]1CSSC[C@H](NC(=O)[C@H](CCCNC(=N)N)NC(=O)CC[C@H](NC(=O)CCCCCCCCCCCCCCCCCCC(=O)O)C(=O)O)C(=O)N[C@@H](CC(N)=O)C(=O)N[C@@H]([C@@H](C)O)C(=O)N[C@@H](C)C(=O)N[C@@H]([C@@H](C)O)C(=O)N1)[C@@H](C)O)C(=O)N[C@@H](CC(C)C)C(=O)N1CCC[C@H]1C(=O)N1CCC[C@H]1C(=O)N[C@H](C(=O)N[C@@H](CC(N)=O)C(=O)N[C@H](C(=O)NCC(=O)N[C@@H](CO)C(=O)N[C@@H](CC(N)=O)C(=O)N[C@H](C(=O)N1CCC[C@H]1C(N)=O)[C@@H](C)O)C(C)C)[C@@H](C)O
As for B2, the “hAMYR3 EC50 (nM); cAMP induction” value in experiment [1] and in experiment [2] was 0.15 nM throughout.

B3: [19CD]-isoGlu-R-C( )-QTAT-C( )-ATDRLA-Aad-FLQRSSF-Gly(Me)-A-Ile(Me)-LSSTEVGSNT-Hyp-NH2 (Compd. 89) (peptide)
peptide: {C20 diacid}-[γGlu]RCQTATCATDRLA[Aad]FLQRSSF[Sar]A[NMeI]LSSTEVGSNT[Hyp]-NH2
modifications: disulfide 3-8
SMILES: CC[C@H](C)[C@@H](C(=O)N[C@@H](CC(C)C)C(=O)N[C@@H](CO)C(=O)N[C@@H](CO)C(=O)N[C@H](C(=O)N[C@@H](CCC(=O)O)C(=O)N[C@H](C(=O)NCC(=O)N[C@@H](CO)C(=O)N[C@@H](CC(N)=O)C(=O)N[C@H](C(=O)N1C[C@H](O)C[C@H]1C(N)=O)[C@@H](C)O)C(C)C)[C@@H](C)O)N(C)C(=O)[C@H](C)NC(=O)CN(C)C(=O)[C@H](Cc1ccccc1)NC(=O)[C@H](CO)NC(=O)[C@H](CO)NC(=O)[C@H](CCCNC(=N)N)NC(=O)[C@H](CCC(N)=O)NC(=O)[C@H](CC(C)C)NC(=O)[C@H](Cc1ccccc1)NC(=O)[C@H](CCCC(=O)O)NC(=O)[C@H](C)NC(=O)[C@H](CC(C)C)NC(=O)[C@H](CCCNC(=N)N)NC(=O)[C@H](CC(=O)O)NC(=O)[C@@H](NC(=O)[C@H](C)NC(=O)[C@@H]1CSSC[C@H](NC(=O)[C@H](CCCNC(=N)N)NC(=O)CC[C@H](NC(=O)CCCCCCCCCCCCCCCCCCC(=O)O)C(=O)O)C(=O)N[C@@H](CCC(N)=O)C(=O)N[C@@H]([C@@H](C)O)C(=O)N[C@@H](C)C(=O)N[C@@H]([C@@H](C)O)C(=O)N1)[C@@H](C)O
For B3, the “hAMYR3 EC50 (nM); cAMP induction” value in experiment [1] and in experiment [2] was 0.2 nM throughout.
